What was measured:
[1] = target: Aβ (amyloid beta peptide, length and aggregation state not specified; ˜4 kDa band) (UniProt P05067)
[2] = target: Aβ42 (aggregation state not stated at the place of use) (UniProt P05067)
Sequence of Aβ42 (aggregation state not stated at the place of use) (P05067 whole entry, looked up): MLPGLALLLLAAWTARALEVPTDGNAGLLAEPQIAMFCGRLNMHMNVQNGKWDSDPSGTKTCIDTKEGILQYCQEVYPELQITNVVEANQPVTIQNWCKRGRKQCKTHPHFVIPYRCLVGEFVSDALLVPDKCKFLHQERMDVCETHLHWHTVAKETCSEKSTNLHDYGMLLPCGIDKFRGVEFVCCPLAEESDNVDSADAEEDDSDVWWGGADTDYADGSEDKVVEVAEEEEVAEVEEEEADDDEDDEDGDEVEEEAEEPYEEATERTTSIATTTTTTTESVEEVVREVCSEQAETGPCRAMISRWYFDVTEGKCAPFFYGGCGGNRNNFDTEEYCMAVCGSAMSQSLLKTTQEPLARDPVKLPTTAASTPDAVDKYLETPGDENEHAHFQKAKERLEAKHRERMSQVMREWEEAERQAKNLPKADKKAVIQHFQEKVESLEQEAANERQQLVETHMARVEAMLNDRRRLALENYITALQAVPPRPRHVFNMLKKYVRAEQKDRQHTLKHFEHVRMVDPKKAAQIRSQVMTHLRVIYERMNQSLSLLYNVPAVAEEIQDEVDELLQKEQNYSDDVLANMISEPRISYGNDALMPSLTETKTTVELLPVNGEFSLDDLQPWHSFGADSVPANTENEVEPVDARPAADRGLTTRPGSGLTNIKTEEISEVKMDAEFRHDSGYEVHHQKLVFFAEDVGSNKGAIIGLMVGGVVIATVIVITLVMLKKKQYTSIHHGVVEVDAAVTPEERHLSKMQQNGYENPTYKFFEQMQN

Sequence of mouse CypD, endogenous, in brain mitochondria and cultured cortical neurons of nonTg and Tg mAPP mice (chain, as listed by the source): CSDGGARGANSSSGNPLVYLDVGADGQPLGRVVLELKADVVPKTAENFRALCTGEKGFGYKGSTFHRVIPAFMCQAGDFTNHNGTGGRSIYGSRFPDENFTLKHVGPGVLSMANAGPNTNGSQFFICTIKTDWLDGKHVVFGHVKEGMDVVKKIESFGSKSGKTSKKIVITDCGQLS
Sequence of Aβ (amyloid beta peptide, length and aggregation state not specified; ˜4 kDa band) (P05067 whole entry, looked up, tested part not stated): as the sequence (P05067 whole entry, looked up) above

mouse CypD, endogenous, in brain mitochondria and cultured cortical neurons of nonTg and Tg mAPP mice
cytochrome c release into the supernatant from isolated mitochondria treated with Aβ [1]: increased levels of cytochrome c release into the supernatant in nonTg-derived mitochondria treated with Aβ
Aβ-mediated swelling of isolated cortical mitochondria, diminished in mitochondria lacking CypD, Aβ 1.6 µM [2]: ˜60%

From patent publication US20100291074
